Measurements as given in article PMC3154745 (Chembiochem : a European journal of chemical biology, 2011).
Read-outs that look alike come from different tables or passages of the source. Primed or numbered codes have the meaning given here. No end group written: not given here. fluorescein″ = fluorescein label at the N-terminus of the peptide; fluorescein = fluorescein group at the N-terminus

B1: HP1a-CSDΔ204 (residues 131-203) (domain or fragment, D. melanogaster, UniProt P05205 131-203, looked up)
chain: EQDTIPVSGSTGFDRGLEAEKILGASDNNGRLTFLIQFKGVDQAEMVPSSVANEKIPRMVIHFYEERLSWYSD
B2: HP1a-CSD (residues 131-206), wild type (domain or fragment, D. melanogaster, UniProt P05205 131-206, looked up)
chain: EQDTIPVSGSTGFDRGLEAEKILGASDNNGRLTFLIQFKGVDQAEMVPSSVANEKIPRMVIHFYEERLSWYSDNED
B3: HP1a-CSD S199E S202E double mutant (residues 131-206) (domain or fragment, D. melanogaster, UniProt P05205 131-206, looked up)
chain: EQDTIPVSGSTGFDRGLEAEKILGASDNNGRLTFLIQFKGVDQAEMVPSSVANEKIPRMVIHFYEERLEWYEDNED
B4: HP1a-CSD W200A (residues 131-206) (domain or fragment, D. melanogaster, UniProt P05205 131-206, looked up)
chain: EQDTIPVSGSTGFDRGLEAEKILGASDNNGRLTFLIQFKGVDQAEMVPSSVANEKIPRMVIHFYEERLSAYSDNED
B5: HP1a-CSD E195Q (residues 131-206) (domain or fragment, D. melanogaster, UniProt P05205 131-206, looked up)
chain: EQDTIPVSGSTGFDRGLEAEKILGASDNNGRLTFLIQFKGVDQAEMVPSSVANEKIPRMVIHFYQERLSWYSDNED

Experiments:
[1] = biological target: the molecule itself; experiment: AUC
[2] = biological target: the molecule itself; experiment: AUC; remark: listed apart in the source
[3] = biological target: B2; experiment: fluorescence polarisation
[4] = biological target: B2; experiment: fluorescence polarisation; remark: listed apart in the source
[5] = biological target: the molecule itself; experiment: AUC; remark: listed apart in the source
[6] = biological target: the molecule itself; experiment: SEC
[7] = biological target: T1, HP1a-CSD I191E (residues 131-206) (D. melanogaster, UniProt P05205 131-206, I191E); experiment: fluorescence polarisation
T1 sequence (looked up): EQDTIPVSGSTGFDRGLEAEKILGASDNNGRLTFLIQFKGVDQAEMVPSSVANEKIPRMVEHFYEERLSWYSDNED

[8] = biological target: B5; experiment: fluorescence polarisation
[9] = biological target: B3; experiment: fluorescence polarisation
[10] = biological target: B4; experiment: fluorescence polarisation
[11] = biological target: B1; experiment: fluorescence polarisation
[12] = biological target: T2, HP1a-CSD A174E (residues 131-206) (D. melanogaster, UniProt P05205 131-206, A174E); experiment: fluorescence polarisation
T2 sequence (looked up): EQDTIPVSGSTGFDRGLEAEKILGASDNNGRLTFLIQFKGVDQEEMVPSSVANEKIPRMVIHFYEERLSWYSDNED

[13] = biological target: B2; experiment: NMR titration

B1
Kd [1]: 2 ± 0.2 µM

B2
Kd [1]: 3 ± 0.2 µM | Kd [2]: 1.6 ± 0.4 µM

{fluorescein″}-QNISPRKLCVKINRRPYNKWLR [HP2 peptide wild type (LCVKI), N-terminal fluorescein]
Kd [3]: 0.14 ± 0.07 µM

B3
Kd [1]: 19 ± 1 µM

{fluorescein″}-PATTSPLVVLSNQLPLNSVAASY [AF10 peptide, N-terminal fluorescein]
binding result [4]: binds

B4
Kd [5]: 5.8 ± 0.6 µM | stoichiometry N [6]: 2

{fluorescein″}-SEGRRLYPLLPRISPQTALSIVANDLAESD [CG15356 peptide, N-terminal fluorescein]
binding result [4]: binds

B5
Kd [1]: 4.3 ± 0.4 µM

fluorescein-TSRGSGDPRVKVFRGSSSGDY [PIWI peptide, N-terminal fluorescein]
Kd [7]: > 2000 µM | Kd [8]: 97 ± 12 µM | Kd [9]: 1.7 ± 0.1 µM | Kd [10]: > 2000 µM | Kd [11]: 60 ± 2 µM | Kd [12]: 101 ± 6 µM | Kd [3]: 20 ± 0.5 µM

fluorescein-QNISPRKLSVKINRRPYNKWLR [HP2 peptide Cys to Ser mutant (LSVKI), N-terminal fluorescein]
Kd [7]: > 400 µM | Kd [8]: 3.7 ± 0.4 µM | Kd [9]: 0.044 ± 0.007 µM | Kd [10]: > 500 µM | Kd [11]: 4.9 ± 0.6 µM | Kd [12]: 1.26 ± 0.12 µM | Kd [3]: 0.3 ± 0.02 µM

TSRGSGDPRVKVFRGSSSGDY [PIWI peptide as used in NMR]
binding result [13]: binds
